Biological target: HLA-A, B, C on presenting PBL
Test: cell-based or functional assay

reduction in γIFN secretion of Long Term AAA cells with PBL presenting cells and collagen: 74%
Substance: W6/32 (anti-HLA-A, B, C) monoclonal antibody

From patent publication US20040151731A1
